In patent publication US20220332804A1 (CSL INNOVATION, published 2022) one finds Kd data, which are given here for one molecule.

Positions count from the first letter of the chain named.

For orientation: Kd means the equilibrium constant for the complex coming apart.

Assay in all cases: SPR, antibody captured, C2 as analyte;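 further: biacore SPR at 37 °C, anti-C2 mAbs captured via goat anti-human IgG on CM5 chips, double-referenced sensorgrams fit to a 1:1 kinetic or steady-state model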
(In general: Surface plasmon resonance follows binding to a sensor surface in real time, without labels.)

In test [1] the target is T1, human C2 G427A (human, UniProt P06681 21-752).
T1 sequence: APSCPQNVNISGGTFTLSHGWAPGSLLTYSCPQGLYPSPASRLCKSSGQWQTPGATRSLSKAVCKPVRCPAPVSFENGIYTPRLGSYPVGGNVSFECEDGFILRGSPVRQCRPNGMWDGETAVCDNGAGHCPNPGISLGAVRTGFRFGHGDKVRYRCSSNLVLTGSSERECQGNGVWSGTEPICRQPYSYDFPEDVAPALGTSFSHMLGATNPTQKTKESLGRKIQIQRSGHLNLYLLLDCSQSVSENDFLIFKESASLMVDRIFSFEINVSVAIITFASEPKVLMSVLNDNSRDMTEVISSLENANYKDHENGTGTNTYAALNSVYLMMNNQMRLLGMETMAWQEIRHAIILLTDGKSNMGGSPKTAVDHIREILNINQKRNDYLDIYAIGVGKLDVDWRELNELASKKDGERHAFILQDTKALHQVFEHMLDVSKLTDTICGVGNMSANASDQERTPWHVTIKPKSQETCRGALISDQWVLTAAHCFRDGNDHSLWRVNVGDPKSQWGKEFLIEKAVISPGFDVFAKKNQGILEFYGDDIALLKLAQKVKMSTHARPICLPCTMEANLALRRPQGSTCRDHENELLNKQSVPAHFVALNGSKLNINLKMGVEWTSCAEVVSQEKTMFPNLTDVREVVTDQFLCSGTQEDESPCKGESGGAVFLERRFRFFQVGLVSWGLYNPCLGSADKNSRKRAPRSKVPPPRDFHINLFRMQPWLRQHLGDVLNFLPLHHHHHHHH

Test [2] has as its target T2, human C2 M648A (human, UniProt P06681 21-752).
T2 sequence: T1 sequence with A407G, M628A

In test [3] the target is T3, human C2 D710A (human, UniProt P06681 21-752).
T3 sequence: T1 sequence with A407G, D690A

Test [4] addresses T4, human C2 M316A (human, UniProt P06681 21-752).
T4 sequence: T1 sequence with M296A, A407G

B1: RF16-226 (antibody, human IgG4 S228P, lambda)
heavy: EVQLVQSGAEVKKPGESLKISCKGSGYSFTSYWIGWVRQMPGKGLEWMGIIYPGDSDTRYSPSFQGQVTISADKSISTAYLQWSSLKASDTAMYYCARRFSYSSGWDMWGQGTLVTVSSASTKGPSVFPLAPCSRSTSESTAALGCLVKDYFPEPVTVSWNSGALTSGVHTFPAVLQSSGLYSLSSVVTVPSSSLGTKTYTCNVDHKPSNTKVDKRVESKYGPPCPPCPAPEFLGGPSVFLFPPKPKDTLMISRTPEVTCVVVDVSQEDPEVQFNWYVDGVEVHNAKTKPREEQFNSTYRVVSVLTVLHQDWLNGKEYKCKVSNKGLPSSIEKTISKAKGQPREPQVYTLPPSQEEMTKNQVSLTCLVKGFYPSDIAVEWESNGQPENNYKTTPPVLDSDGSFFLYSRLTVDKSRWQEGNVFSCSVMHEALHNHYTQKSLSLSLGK
light: SYELTQPPSVSVSPGQTARITCSGDALTSKYVAWYQQKSGLAPLLVIYEDTRRPSGIPAKFSGSSSGSVATLTISGAHGDDEADYYCYSTDASGHQRVFGGGTKLTVLSQPKAAPSVTLFPPSSEELQANKATLVCLISDFYPGAVTVAWKADGSPVKAGVETTKPSKQSNNKYAASSYLSLTPEQWKSHRSYSCQVTHEGSTVEKTVAPTECS
notes: pH-dependent anti-C2 antibody from a phage display library; also called WT
Turning to B1, the Kd is 4.2 nM in test [1], 203 nM in test [2], 97.4 nM in test [3] and 12.3 nM in test [4].
